Source: the DeepSol protein solubility set

Assay: soluble on expression in E. coli; label from the status in PepcDB or PDB records

In the case of “MGSDKIHHHHHHMIISWNTTNKCNMHCEHCYRDSGKGAEGELSTTEGKKLIDEIAKAGFKIMIFSGGEPLLRDDIYELIGYASKIGLRCVIGSNGTLITLEAAQKLKKAGVMRAGISLDSLKAKKHDSFRNYSGAWENTIIGIENLKKAGISFQINTTVMKWNKDEVKDITDFGANLGASAHHVFFLVPTGRGAELQEQILSKNDYENLIKEIMLKQAHANIEIKPTCAPQFVRIAEQNNIKTRFKKGCLAGIKYCIISPTGNVQPCAYLNFSAGNVKQKSFGEIWRESPILKKLRTMEYGEKCGTCKYKNKCGGCRARAAFYNNGDIMASDTWCIYNEYEENKING”, the “soluble on expression in E. coli” value is reported as “not soluble”.
In the case of “MGSDKIHHHHHHMQFGKTDTPEDIDFTLPKDHPDTKKILSEAKPGKHFNVYVGCAKWNKTDLKNFYPKGTKDELQYYATQFNSIELNATFYKSPSKDQVQTWKAKAAKGFKFFPKIPNTISHFKRLVGVETIVEEFCDAVVLFEENLGMSFLQMHDNFKPKDMDKLDAFLKKFPASVPLAVELRNEEWYSDKNVQDDLHAMLVKYKKTFVLVDTAARRDIMHMRLTSDKAFIRYVGANHESDYARLDDWIKRIKTWRKEGLNELYFFVHQNVELESPLLSAYFIEKMNKEFDLDLTVPQTIKKKQ”, the “soluble on expression in E. coli” value is reported as “not soluble”.
For “GMTYKDYTGLDRTELLSKVRHMMSDKRFNHVLGVERAAIELAERYGYDKEKAGLAALLHDYAKELSDDEFLRLIDKYQPDPDLKKWGNNIWHGLVGIYKIQEDLAIKDQDILAAIAKHTVGSAQMSTLDKIVYVADYIEHNRDFPGVEEARELAKVDLNKAVAYETARTVAFLASKAQPIYPKTIETYNAYIPYLD”, the “soluble on expression in E. coli” value was “soluble”.
In the case of “MVCSRSVSLLFTLLVGVYASTATDPIDSISTQGADILNRAKLTGQTVRQCSCSEQRVCVEEMKLQAKDCTVPCFQKFSSITSRPNDLKKCFDEKDNILEDFLTCFENRVEACVNDQHGPQIQKTDIRGIFKVTEKSIATQTNTFQTMIKPIKHILDATGDFALCVKDCFLEKNKSGFCFDRKGCQPLVAETKARQSFRACTKKMHWKREAGELCECSVQAGVDSRELRQYCAMFKLMRRRAPMRKSRG”, the “soluble on expression in E. coli” value is reported as “not soluble”.
For “MAHHHHHHMSSKGAAMTPNGNGATHESRPGKKGRPPRRRADREAAGAHFDCGSSQTTEKGGDEYQYKHPKPRVLTSSLFMWEHVAVFSMPAQVAELERVSRDVARLLEDSNTGTHPMQRYWNAQWSRMVWREEELPDEKKYLAPTMLTRSDGKRKWKNVFVQEYPLYLKRVYQGKGVCNNAVNAAKVLFNRQVLNAAKTAAELERMELTVEEARVKEQKKRGVDVEFEETPDTAPSPPWLGCHHGSYPEKGERERHEKGRPRAVKKASHETYTRSDYKEDYRTGDRKGKHKKGGTGRWSKFDDFGDYDY”, the “soluble on expression in E. coli” value was “not soluble”.
In the case of “MTKEQIQIIKDCVPILQKNGEDLTNEFYKIMFNDYPEVKPMFNMEKQISGEQPKALAMAILMAAKNIENLENMRSFVDKVAITHVNLGVKEEHYPIVGACLLKAIKNLLNPDEATLKAWEVAYGKIAKFYIDIEKKLYDK”, the “soluble on expression in E. coli” value is reported as “soluble”.
For “MNLVPPKEEENLIVFNKQLGEDRRIVMSRSNLNELLKALEENELLCTDLYQVNTDGVILTKQRAEKVIGWARNHYLSSCPSPSIKEGRLILPRESIEISVKRLKAQEDISRKPTQNLKRFLFLQNIAKDEFETNFVSAVVAPGEIGVKFDDIGALEHVKKTLNELVILPMRRPELFTRGNLLRPCKGILLFGPPGTGKTLLAKALATEAGANFISITGSTLTSKWFGDAEKLTKALFSFASKLAPVIIFVDEVDSLLGARGGAFEHEATRRMRNEFMAAWDGLRSKDSQRILILGATNRPFDLDDAVIRRLPRRIYVDLPDAENRLKILKIFLTPENLETGFEFDKLAKETEGYSGSDLKNLCIAAAYRPVQELLQEENKDSVTNASPDLRPLSLDDFIQSKAKVSPSVAYDATTMNELRKWNEQYGEGGTRTKSPFGF”, the “soluble on expression in E. coli” value was “soluble”.
With “MGSSHHHHHHSSGLVPRGSHMASMTGGQQMGRGSMTTHLQAKATLHNGVEMPWFGLGVFQVEEGSELVNAVKTAIVHGYRSIDTAAIYGNEAGVGEGIREGIEEAGISREDLFITSKVWNADLGYEETLAAFETSLSKLGLDYLDLYLIHWPVEGKYKEAWRALETLYKEGRIKAIGVSNFQIHHLEDLMTAAEIKPMINQVEFHPRLTQKELIRYCQNQGIQMEAWSPLMQGQLLDHPVLADIAQTYNKSVAQIILRWDLQHGIITIPKSTKEHRIKENASVFDFELTQDDMNRIDALNENLRVGPDPDNFDF” the “soluble on expression in E. coli” value was “soluble”.
For “GPGSMPLMSADGSGELPPVMLHRYPVTLGLPTADPYALAIECMLRIVGAHYKKRDGGLPVTLEVPVDGRNKPAMKRHEGLTSCLQLIESATHQDAEVITSALEPEALCVRLTAEVVLIPAFVYITHSDAGILRNAIQKAVEPKVASMWQRFRGSYSRHVVQQTSFCRSYKNMGEAIENVERCLRAIEAICSINTAGNGMFILGTERPCSADALIYAAASSFFHADFASRQASGDIIAMQQRLREGCPTLLTYVERLRGLYFEDYSAFYHLRAPTCGMEGEATQKAAEETFVRGRWKVLAFTGVFSITYFLVANIDVFSAVLLHYLEDDGEEEFLEDEE”, the “soluble on expression in E. coli” value was “not soluble”.
In the case of “NIENSSLERIANILNSKLKGLTIEQINLEVINNIKKDLREYGHIFDCIMPNLYDILREADSTEVYKEGTMNIFNYPEFKDIEKAKEFLSVIDDRRILDTLFNASGGVTVNIGNENSIKEARDFSVVSSVYKYNGRPLGTIGIIGPTRIPYSKVIKVIMEVVDQINNNLDKMNNS”, the “soluble on expression in E. coli” value is reported as “not soluble”.
For “MGSDKIHHHHHHMAKKKVIFECMACGYQSPKWMGKCPNCGAWNQMEEIVEKAANPKHGVKTKELAGKVQKLNSIKHETTPRVLTDSAEFNRVLGGGIVSGSLVLIGGDPGIGKSTLLLQICASLSQKKKVLYITGEESLSQTKLRAERLDEDSSELQVLAETDLEVIYQTVKEEQPDLLVVDSIQTIYHPEISSAPGSVSQVRESTQSLMNIAKQMNIATFIVGHVTKEGQIAGPRLLEHMVDTVLYFEGDEHHAYRILRAVKNRFGSTNEMGIFEMKQSGLKGVNNPSEMFLEERSTNVPGSTIVATMEGTRPLLIEVQALVTPTTFNNPRRMATGIDHNRLSLLMAVLEKKENYLLQQQDAYIKVAGGVKLTEPAVDLSVIVATASSFKDKAVDGLDCYIGEVGLTGEVRRVSRIEQRVQEAAKLGFKRVIIPKNNIGGWTYPEGIQVIGVTTVHEALSFALHS”, the “soluble on expression in E. coli” value was “not soluble”.
With “SRSKQKSRRRCFQCQTKLELVQQELGSCRCGYVFCMLHRLPEQHDCTFDHMGRG” the “soluble on expression in E. coli” value was “soluble”.
In the case of “MTRHGKNSTAASVYTYHERRRDAKASGYGTLHARLGADSIKEFHCCSLTLQPCRNPVISPTGYIFDREAILENILAQKKAYAKKLKEYEKQVAEESAAAKIAEGQAETFTKRTQFSAIESTPSRTGAVATPRPEVGSLKRQGGVMSTEIAAKVKAHGEEGVMSNMKGDKSTSLPSFWIPELNPTAVATKLEKPSSKVLCPVSGKPIKLKELLEVKFTPMPGTETAAHRKFLCPVTRDELTNTTRCAYLKKSKSVVKYDVVEKLIKGDGIDPINGEPMSEDDIIELQRGGTGYSATNETKAKLIRPQLELQ”, the “soluble on expression in E. coli” value is reported as “soluble”.
For “MGSDKIHHHHHHMNTLVDAGFSPRREGFAPQPLIEALLSILPAHCVLHREEDTRPYECDGLSLYRALPAVVALPEDEAQVRAIMQLCKRMNVPIVARGAGTGLSGGAMPHAQGVLLGLSKLNRIKRIDPAGGTAVVEPGVRNLAISEAAAPYGLYYAPDPSSQIACSIGGNVAENSGGVHCLKYGLTVHNVLRVRVVTIDGEIVELGSEAPDAPGLDLLSVFVGSEGMLGVVTEITVKLIPSPACAQVVMASFASVEAAGNAVTQIIAAGLIPAGLEMMDRQAVHMVEPFVQAGYDLQAQAILLCEADGTPQEVAHEVAMMEAVFKRAGATSLQVSGSEAERLRFWAGRKNAFPAAGRVSPDYYCMDGTIPRRHLARVLGAIEQMEDDFGLRCANVFHAGDGNLHPLILFDSNKPDEVERAEKFGAAILELCVQVGGTVTGEHGVGMEKINQMCVQFSRDELDAFLAVKRAFDPPGLLNPEKVIPTLARCAEYGKMHVHAGEMRFPDLARF”, the “soluble on expression in E. coli” value was “not soluble”.
For “MHHHHHHAIGYVWNTLYGWVDTGTGSLAAANLTARMQPISHHLAHPDTKRRFHELVCASGQIEHLTPIAAVAATDADILRAHSAAHLENMKRVSNLPTGGDTGDGITMMGNGGLEIARLSAGGAVELTRRVATGELSAGYALVNPPGHHAPHNAAMGFCIFNNTSVAAGYARAVLGMERVAILDWDVHHGNGTQDIWWNDPSVLTISLHQHLCFPPDSGYSTERGAGNGHGYNINVPLPPGSGNAAYLHAMDQVVLPALRAYRPQLIIVGSGFDASMLDPLARMMVTADGFRQMARRTIDCAADICDGRIVFVQEGGYSPHYLPFCGLAVIEELTGVRSLPDPYHEFLAGMGGNTLLDAERAAIEEIVPLLADIR”, the “soluble on expression in E. coli” value was “soluble”.
With “AHHHHHHGSKRVWLVIPDTNFLFIPGQFGVDIISELERILDVNYKIVIPNIVLEELKTILREGKLRGKDLIAARMALKLAERFPTIYVGDFMSKTTDELIYEFAISNDNVIVCTNDKQLRKRLREAGVPVVFLRQKKKLELEGMLG” the “soluble on expression in E. coli” value was “soluble”.
For “AHHHHHHGSIDAHAHIEFFKKNQEEIIEEAKRKLRGVVDSITEYRKTHVWKSWELLKDYFDFIFPTLGYHPNEARRGNWEKVRKVEDFILKHQKEIFGIGEIGLDYYHAKTKAERDAQREIFVHFLELAKELNLPVVIHAREAEKEALEIINRYDIPSYFHSYTGSVEVAREIVDGGHILGISTGIVFIPEVREVAKNIEIEYLVVETDAPYMSPYKGIRNKPIFVEVAIEELAKIKGMDKTEVEAVTEVNTIKFFSLPL”, the “soluble on expression in E. coli” value was “soluble”.
For “MNIRDLEYLVALAEHRHFRRAADSCHVSQPTLSGQIRKLEDELGVMLLERTSRKVLFTQAGMLLVDQARTVLREVKVLKEMASQQGETMSGPLHIGLIPTVGPYLLPHIIPMLHQTFPKLEMYLHEAQTHQLLAQLDSGKLDCVILALVKESEAFIEVPLFDEPMLLAIYEDHPWANRECVPMADLAGEKLLMLEDGHCLRDQAMGFCFEAGADEDTHFRATSLETLRNMVAAGSGITLLPALAVPPERKRDGVVYLPCIKPEPRRTIGLVYRPGSPLRSRYEQLAEAIRARMDGHFDKVLKQAV”, the “soluble on expression in E. coli” value was “soluble”.
With “MSSKEIICQGEELFRLIPQRPPMVMIDRFYGIEENTSWSGLTVTTDNLFCRDGVLQETGIIEHIAQSAAARVGYIYMLRKEPVPLGFIGSVEKMKLFRLPSAGAELYTGITIVQEVFDITLITAEVKENDELLAECRMKIYLKKELEHHHHHH” the “soluble on expression in E. coli” value was “soluble”.
In the case of “SEHPQPVTTQIEKSVNTALNKNYVFNKADYQYTLTNPSLGKIVGGILYPNATGSTTVKISDKSGKIIKEVPLSVTASTEDNFTKLLDKWNDVTIGNYVYDTNDSNMQKLNQKLDETNAKNIEAIKLDSNRTFLWKDLDNLNNSAQLTATYRRLEDLAKQITNPHSTIYKNEKAIRTVKESLAWLHQNFYNVNKDIEGSANWWDFEIGVPRSITGTLSLMNNYFTDAEIKTYTDPIEHFVPDAEYFRKTLVNPFKALGGNLVDMGRVKIIEGLLRKDNTIIEKTSHSLKNLFTTATKAEGFYADGSYIDHTNVAYTGAYGNVLIDGLTQLLPIIQETDYKISNQELDMVYKWINQSFLPLIVKGELMDMSRGRSISREAASSHAAAVEVLRGFLRLANMSNEERNLDLKSTIKTIITSNKFYNVFNNLKSYSDIANMNKLLNDSTVATKPLKSNLSTFNSMDRLAYYNAKKDFGFALSLHSKRTLNYEGMNDENTRGWYTGDGMFYIYNSDQSHYSNHFWPTVNPYKMAGTTEKDAKREDTTKEFMSKHSKDAKEKTGQVTGTSDFVGSVKLNDHFALAAMDFTNWDRTLTAQKGWVILNDKIVFLGSNIKNTNGIGNVSTTIDQRKDDSKTPYTTYVNGKTIDLKQASSQQFTDTKSVFLESKEPGRNIGYIFFKNSTIDIERKEQTGTWNSINRTSKNTSIVSNPFITISQKHDNKGDSYGYMMVPNIDRTSFDKLANSKEVELLENSSKQQVIYDKNSQTWAVIKHDNQESLINNQFKMNKAGLYLVQKVGNDYQNVYYQPQTMTKTDQLAI”, the “soluble on expression in E. coli” value is reported as “soluble”.
